The target in the test is C-terminal His6-tagged VanA-type VanS^127-384 (cytoplasmic domain of the histidine kinase VanS) (UniProt Q06240). In words: differential scanning fluorimetry.

Substance siamycin I (peptide) yielded a Kd of 38 µM.
The same measure for sviceucin (peptide): 52 µM.

Usually Kd stands for the constant that tells how readily two partners part at equilibrium. The low end stands for a tighter complex, the high end for a looser complex.

For the origin of these results see article doi:10.1101/2024.07.30.605797.
